From US20220325265A1, “GLUCOCEREBROSIDASE MUTANTS” (Hoffmann-la Roche Inc., priority 2019, published 2022)
Values joined by “and” are separate entries in the source; they are usually repeats but may differ in a detail not shown here. Identical values can stand only once.

What was measured:
[1] = Thermal shift assay via nanoDSF measurement (unfolding temperature); format: physicochemical; conditions: Prometheus NT.Plex, 3° C./min, 0.06-0.5 mg/ml
Experimental: The thermal shift assay was performed via nanoDSF (differential scanning fluorimetry) measurements using Prometheus NT.Plex nanoDSF (NanoTemper Technologies). The measurement was initialized using the software PR.ThermoControl. Prometheus can precisely characterize samples by measuring the thermal unfolding, chemical denaturation and aggregation within one single run (NanoTemper Technologies, 2019). By gradually heating the sample until reaching 95° C., the protein unfolds. Thereby, the chemical environment of tryptophan residues changes (change in intrinsic tryptophan fluorescence of protein due to more aqueous environment), causing a red-shift in fluorescence (tryptophan fluorescence emission shift). By plotting the fluorescence ratio 350/330 nm against the temperature, the melting temperature Tm can be determined. Calculating the first derivative of raw data gives a peak curve with its maximum indicating the unfolding temperature Tm.
For the sample preparation, a concentration of 0.5 mg/ml was adjusted for the hGCase mutants. For variant I5N and R495HS2, protein concentrations of 0.075 mg/ml (I5N) and 0.06 mg/ml (R495HS2) were applied due to low protein yields. 15 μl total sample volume was uptaken in each capillary of the capillary rack (Prometheus NT.Plex Capillary Chips, NanoTemper) and placed in the device. The excitation power was adjusted to 20-80%, depending on the applied protein concentration. The gradually heating was set to 3° C./min until reaching 95° C. (20° C. was set as starting temperature). The evaluation and calculation of the first derivative was done using the NanoTemper PR.ThermoControl software, the final evaluation and graphing was done using the PR.StabilityAnalysis software.
On the one hand, a successively increasing temperature gradient was applied to measure melting temperatures of protein molecules via nanoDSF (differential scanning fluorimetry) measurement using Prometheus NT.Plex (NanoTemper Technologies, 2019). The sample is gradually heated by increasing the temperature until reaching 95° C. Thereby, the protein unfolds and tryptophan residues experience a change in chemical environment (exposure to a more aqueous environment), which changes the intrinsic tryptophan fluorescence of the protein, causing a red shift in the fluorescent spectrum (350/330 nm=tryptophan fluorescence emission shift) (Schubert, 2015). In FIG. 1, typical melting curves of such an unfolding experiment are shown.
In the upper section of the graphs (FIGS. 1 (A) and (B)), the raw data (progression curves) measured with nanoDSF is plotted, indicating the shift in the fluorescence ratio 350/330 nm during the course of the measurement with increasing temperature. The calculation of the first derivative, giving peak curves (lower section of graphs in (A) and (B)), was done according to default settings of the Software PR.StabilityAnalysis (table 2). Peak maxima (thermal unfolding transition midpoint) indicate the unfolding temperature Tm, where half of the proteins are unfold (Schubert, 2015).

hGCase = experiment: Inhibition of hGCase using conditurol-β-epoxide (CBE), IC50 determination; format: biochemical, human; conditions: irreversible inhibitor conditurol-β-epoxide on the named hGCase variant; 25 nM protein, 10 min pre-incubation, 20 μM res-β-glc
Experimental: CBE is an irreversible inhibitor of glucocerebrosidases which covalently binds to the active site of the enzyme (Liou et al., 2006).
A stock solution of 100 mM CBE in H2Oultrapure was prepared. For IC50 determination, CBE concentrations ranging from 0.04-2500 μM were tested. Again, the final enzyme concentration was 25 nM. After adding the inhibitor, the enzyme was pre-incubated for 10 min before initializing the activity measurement by adding the substrate (20 μM).
IC50 evaluations were done in the same manner as described for IFG (see section above). The IC50 calculations were done using GraphPad Prism7 following equation 9.
To determine whether the active binding site of an enzyme is compromised or altered, IC50 values were calculated for active site inhibitor and compared. In this work, the natural occurring GCase inhibitor isofagomine (IFG) and conditurol-β-epoxide (CBE) were used. IFG is known as a reversible inhibitor, interacting with the active site of the GCase enzyme, whereas CBE is an irreversible inhibitor of GCase (Powe et al., 2006). The IC50 of an enzyme is defined as the concentration of an inhibitor, where the response, in this case the enzyme activity, is reduced by half (Kalliokoski et al., 2013). Both assays were conducted as described in section 2.5.6. The inhibitor profiles of M53T/P55T using IFG and CBE as well as the IC50 profiles of all residual mutants combined are shown in FIG. 4.
The raw data was plotted by transforming the applied IFG/CBE concentration to a logarithmic scale (x-axis, FIG. 4) and by normalizing the activity signal with highest signal of each data set to 100% (defined with apparent inhibitor concentration of 10-12 μM, equal to no inhibitor). IC50 values were calculated using GraphPad Prism7 following equation 9.

[2] = Determination of the kinetic parameters (Michaelis-Menten) with artificial substrate; format: biochemical; conditions: for kcat: protein concentration used: 25 nM; for Km / Vmax: res-β-glc 4-500 μM, 25 nM protein
Experimental: The kinetic parameters were examined using the artificial substrate resorufin-β-glucopyranoside (Sigma-Aldrich). For the determination, final concentrations of substrate ranging from 4-500 μM were tested. The assay followed the activity assay instructions in section 2.3.5. 25 nM final protein concentration was used for each construct. The incubation time was set to 30 min to ensure measurements in the linear signal range. The kinetics were evaluated and plotted according to Michaelis-Menten (Cornish-Bowden, 2013; Johnson, 2015). KM, Vmax was calculated by GraphPad Prism7 applying the Michaelis-Menten fit equation provided by the program. The equation model follows: […]
with: • KM: Michaelis-Menten constant [μM] • Vmax: maximum velocity of reaction [μM/min]
The kinetic parameter kcat is defined as the catalytic constant, representing the turnover number of substrate to product per time unit (here per second) (Eisenthal et al., 2007). kcat can be calculated as follows: […]
with: • kcat: turnover number [min-1] • Vmax: maximum velocity of reaction [μM/min] • [E]tot.: total enzyme concentration [nM]
Another kinetic key parameter to describe the catalytic efficiency of enzymes is the parameter kcat/KM, measured in [μM−1*s−1] in this work (Eisenthal et al., 2007).
Determining enzyme kinetic key parameters gives solid information about the efficiency and efficacy of an enzyme and how certain mutations can impact its functionality. For the determination and comparison of the enzymatic performances, KM, Vmax and kcat as well as kcat/KM were calculated for the different hGCase variants, respectively (Eisenthal et al., 2007). The according assay was performed as described in section 2.5.5, all measured with the artificial substrate res-3-glc. KM and Vmax determination for representative mutant M53T/P55T was done applying the Michaelis-Menten curve fit (GraphPad Prism7; see equation 4) as shown in the following.
The kinetic raw data is depicted in FIG. 5 (A) with progression curves following pseudo first order in a linear measurement range with a good reproducibility and low variance. The slopes of the progression curves can be replotted, with velocities V [μM/min] plotted as a function of substrate concentration [S] applied, resulting in a typical course of a Michaelis-Menten curve (Cornish-Bowden, 2013; Johnson, 2015).

IC50 (hGCase)	Molecule	unfolding temperature Tm [1] [°C]	kcat [2] [s⁻¹]	Km [2] [µM]	Vmax [2]
~76 µM and 76 µM	M53T/P55T: recombinant human β-glucocerebrosidase variant R495H/M53T/P55T, S2 cells; Seq. Id. No. 7 (protein, listed as Homo sapiens, recombinant human β-glucocerebrosidase variant R495H/M53T/P55T, S2 cells; Id; No. 7) ARPCIPKSFGYSSVVCVCNATYCDSFDPPTFPALGTFSRYESTRSGRRMELSTGTIQANHTGTGLLLTLQPEQKFQKVKGFGGAMTDAAALNILALSPPAQNLLLKSYFSEEGIGYNIIRVPMASCDFSIRTYTYADTPDDFQLHNFSLPEEDTKLKIPLIHRALQLAQRPVSLLASPWTSPTWLKTNGAVNGKGSLKGQPGDIYHQTWARYFVKFLDAYAEHKLQFWAVTAENEPSAGLLSGYPFQCLGFTPEHQRDFIARDLGPTLANSTHHNVRLLMLDDQRLLLPHWAKVVLTDPEAAKYVHGIAVHWYLDFLAPAKATLGETHRLFPNTMLFASEACVGSKFWEQSVRLGSWDRGMQYSHSIITNLLYHVVGWTDWNLALNPEGGPNWVRNFVDSPIIVDITKDTFYKQPMFYHLGHFSKFIPEGSQRVGLVASQKNDLDAVALMHPDGSAVVVVLNRSSKDVPLTIKDPAVGFLETISPGYSIHTYLWHRQ	55.3 ± 0.1	0.09	100 ± 15.8	0.13 ± 0.01 µM/min and 0.13 µM/min
60 ± 3 µM	F31Y: recombinant human β-glucocerebrosidase variant R495H/F31Y, S2 cells; Seq. Id. No. 5 (protein, listed as Homo sapiens, recombinant human β-glucocerebrosidase variant R495H/F31Y, S2 cells; Id; No. 5) ARPCIPKSFGYSSVVCVCNATYCDSFDPPTYPALGTFSRYESTRSGRRMELSMGPIQANHTGTGLLLTLQPEQKFQKVKGFGGAMTDAAALNILALSPPAQNLLLKSYFSEEGIGYNIIRVPMASCDFSIRTYTYADTPDDFQLHNFSLPEEDTKLKIPLIHRALQLAQRPVSLLASPWTSPTWLKTNGAVNGKGSLKGQPGDIYHQTWARYFVKFLDAYAEHKLQFWAVTAENEPSAGLLSGYPFQCLGFTPEHQRDFIARDLGPTLANSTHHNVRLLMLDDQRLLLPHWAKVVLTDPEAAKYVHGIAVHWYLDFLAPAKATLGETHRLFPNTMLFASEACVGSKFWEQSVRLGSWDRGMQYSHSIITNLLYHVVGWTDWNLALNPEGGPNWVRNFVDSPIIVDITKDTFYKQPMFYHLGHFSKFIPEGSQRVGLVASQKNDLDAVALMHPDGSAVVVVLNRSSKDVPLTIKDPAVGFLETISPGYSIHTYLWHRQ	55.1 ± 0.1	0.07	96.6	0.11 µM/min
106 µM	L34Q: recombinant human β-glucocerebrosidase variant R495H/L34Q, S2 cells; Seq. Id. No. 6 (protein, listed as Homo sapiens, recombinant human β-glucocerebrosidase variant R495H/L34Q, S2 cells; Id; No. 6) ARPCIPKSFGYSSVVCVCNATYCDSFDPPTFPAQGTFSRYESTRSGRRMELSMGPIQANHTGTGLLLTLQPEQKFQKVKGFGGAMTDAAALNILALSPPAQNLLLKSYFSEEGIGYNIIRVPMASCDFSIRTYTYADTPDDFQLHNFSLPEEDTKLKIPLIHRALQLAQRPVSLLASPWTSPTWLKTNGAVNGKGSLKGQPGDIYHQTWARYFVKFLDAYAEHKLQFWAVTAENEPSAGLLSGYPFQCLGFTPEHQRDFIARDLGPTLANSTHHNVRLLMLDDQRLLLPHWAKVVLTDPEAAKYVHGIAVHWYLDFLAPAKATLGETHRLFPNTMLFASEACVGSKFWEQSVRLGSWDRGMQYSHSIITNLLYHVVGWTDWNLALNPEGGPNWVRNFVDSPIIVDITKDTFYKQPMFYHLGHFSKFIPEGSQRVGLVASQKNDLDAVALMHPDGSAVVVVLNRSSKDVPLTIKDPAVGFLETISPGYSIHTYLWHRQ	55.2 ± 0.0	0.11	143	0.17 ± 0.01 µM/min and 0.17 µM/min
60 ± 3 µM	imiglucerase (protein, UniProt P04062 40-536, looked up, variant R495H, imiglucerase; CHO-produced, Commercially available Cerezyme (imiglucerase, Genzyme), hGCase R495H produced in CHO cells) Lysosomal acid …: ARPCIPKSFGYSSVVCVCNATYCDSFDPPTFPALGTFSRYESTRSGRRMELSMGPIQANHTGTGLLLTLQPEQKFQKVKGFGGAMTDAAALNILALSPPAQNLLLKSYFSEEGIGYNIIRVPMASCDFSIRTYTYADTPDDFQLHNFSLPEEDTKLKIPLIHRALQLAQRPVSLLASPWTSPTWLKTNGAVNGKGSLKGQPGDIYHQTWARYFVKFLDAYAEHKLQFWAVTAENEPSAGLLSGYPFQCLGFTPEHQRDFIARDLGPTLANSTHHNVRLLMLDDQRLLLPHWAKVVLTDPEAAKYVHGIAVHWYLDFLAPAKATLGETHRLFPNTMLFASEACVGSKFWEQSVRLGSWDRGMQYSHSIITNLLYHVVGWTDWNLALNPEGGPNWVRNFVDSPIIVDITKDTFYKQPMFYHLGHFSKFIPEGSQRVGLVASQKNDLDAVALMHPDGSAVVVVLNRSSKDVPLTIKDPAVGFLETISPGYSIHTYLWHRQ	55.2 ± 0.0	0.09	131	0.14 µM/min
